Patent US20200199217A1
Where a chain is given by its changes, count along the chain named.

T1: hu-IL-36β (human)
T1 sequence: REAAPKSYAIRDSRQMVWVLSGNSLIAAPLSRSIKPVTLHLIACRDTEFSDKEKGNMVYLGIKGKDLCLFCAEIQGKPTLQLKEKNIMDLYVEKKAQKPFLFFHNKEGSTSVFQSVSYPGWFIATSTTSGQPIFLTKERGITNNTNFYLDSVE

B1: mAb8.0 Fab (Fab, V domains shown)
VH: QVQLVQSGAEVKKPGSSVKVSCKASGGTFSNYAISWVRQAPGQGLEWMGGILPILGTVDYAQKFQGRVTITADESTSTAYMELSSLRSEDTAVYYCAREPWYRLGAFDVWGQGTLVTVSS
VL: DIQMTQSPSSLSASVGDRVTITCRASQTIYKYLNWYQQKPGKAPKLLIYAASSLQSGVPSRFSGSGSGTDFTLTISSLQPEDFATYYCQQYSSIPYTFGQGTKVEIK
B2: mAb6.0 Fab (Fab, V domains shown)
VH: QLQLQESGPGLVKPSETLSLTCTVSGGSITSSNYYWGWIRQPPGKGLEWIGSIDYTGSTYYNPSLKSRVTISVDTSKNQFSLKLSSVTAADTAVYYCARGKYYETYLGFDVWGQGTLVTVSS
VL: QSVLTQPPSVSGAPGQRVTISCTGSSSNIGAGYDVHWYQQLPGTAPKLLIYGNTNRPSGVPDRFSGSKSGTSASLAITGLQAEDEADYYCQSYDISLSGWVFGGGTKLTVL
B3: mAb7.0 Fab (Fab, V domains shown)
VH: QVQLVESGGGVVQPGRSLRLSCAASGFTFSSYGMHWVRQAPGKGLEWVAVISYGGSERYYADSVKGRFTISRDNSKNTLYLQMNSLRAEDTAVYYCAREPWYSSRGWTGYGFDVWGQGTLVTVSS
VL: EIVLTQSPGTLSLSPGERATLSCRASQSVSSNYLAWYQQKPGQAPKLLIYSASSLQSGVPSRFSGSGSGTDFTLTISSLQPEDFATYYCQQTYSYPPTFGQGTKVEIK
B4: mAb2.0 Fab (Fab, V domains shown)
VH: QLQLQESGPGLVKPSETLSLTCTVSGGSISTSSYYWGWIRQPPGKGLEWIGSIYYTGNTYYNPSLKSRVTISVDTSKNQFSLKLSSVTAADTAVYYCARVRYGVGVPRYFDPWGQGTLVTVSS
VL: B2 VL with G32H, T54D, I95Y, W100Y
B5: mAb3.0 Fab (Fab, V domains shown)
VH: B4 VH with T31S, S32T, Y54H, T56S, R101H, V104G, G105Y, V106I, Y109R, P112H
VL: B2 VL with I95Y, S98R, W100Y
B6: mAb4.0 Fab (Fab, V domains shown)
VH: QLQLQESGPGLVKPSETLSLTCTVSGGSIGSRSYYWGWIRQPPGKGLEWIGSIHYSGTTYYNPSLKSRVTISVDTSKNQFSLKLSSVTAADTAVYYCARVAPSYPRVFDYWGQGTLVTVSS
VL: B2 VL with T54R, I95Y, S98R, G99V, W100Y
B7: mAb5.0 Fab (Fab, V domains shown)
VH: EVQLLESGGGLVQPGGSLRLSCAASGFTFSTYAMSWVRQAPGKGLEWVSGISGGSGYTYYADSVKGRFTISRDNSKNTLYLQMNSLRAEDTAVYYCARVVTYRDPPASFDYWGQGTLVTVSS
VL: B2 VL with G32H, T54D, I95Y, S98K, G99A, W100Y
B8: mAb1.0 Fab (Fab, V domains shown)
VH: QVQLVESGGGVVQPGRSLRLSCAASGFSFSAYAMHWVRQAPGKGLEWVAVISYDGTNEYYADSVKGRFTISRDNSKNTLYLQMNSLRAEDTAVYYCARGIRIFTSYFDSWGQGTLVTVSS
VL: B2 VL with G32H, G52S, T54N, I95Y, S98R, W100Y

Molecular target: hu-IL-36α (human) (UniProt Q9UHA7)
Assay: ELISA, yeast Fab supernatant

Sequence of hu-IL-36α (human) (Q9UHA7 6-158 limits assumed): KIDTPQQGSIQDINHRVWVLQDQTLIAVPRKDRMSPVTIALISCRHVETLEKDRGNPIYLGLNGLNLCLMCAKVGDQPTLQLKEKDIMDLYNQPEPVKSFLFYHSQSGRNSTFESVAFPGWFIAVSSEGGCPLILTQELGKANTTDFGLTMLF

How did the ELISA OD450 turn out when B1 was run?
The ELISA OD450 was 0.0698 OD450.

B2 was tested. Which ELISA OD450 did it give?
Its ELISA OD450 is 0.0638 OD450.

How did the ELISA OD450 turn out when B3 was run?
Its ELISA OD450 is 0.0604 OD450.

Molecular target: T1, hu-IL-36β (human)
Assay: ELISA, yeast Fab supernatant

With B4 as the binder, how does the ELISA OD450 read?
The ELISA OD450 was 0.0604 OD450.

For B5, which ELISA OD450 is on record?
Its ELISA OD450 is 0.11 OD450.

B6 was tested. Which ELISA OD450 did it give?
Its ELISA OD450 is 0.0513 OD450.

With B7 as the binder, how does the ELISA OD450 read?
Its ELISA OD450 is 0.129 OD450.

For B8, which ELISA OD450 is on record?
The ELISA OD450 was 0.0523 OD450.

Molecular target: hu-IL-36γ (human) (UniProt Q9NZH8)
Assay: ELISA, yeast Fab supernatant

Sequence of hu-IL-36γ (human) (Q9NZH8 18-169 limits assumed): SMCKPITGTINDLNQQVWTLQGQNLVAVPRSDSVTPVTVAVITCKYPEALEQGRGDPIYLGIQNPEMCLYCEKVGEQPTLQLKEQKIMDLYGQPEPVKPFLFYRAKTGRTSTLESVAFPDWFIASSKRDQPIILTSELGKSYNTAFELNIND

For B1, which ELISA OD450 is on record?
Its ELISA OD450 is 0.073 OD450.

With B2 as the binder, how does the ELISA OD450 read?
The ELISA OD450 was 0.0656 OD450.

For B3, which ELISA OD450 is on record?
The ELISA OD450 was 0.0724 OD450.
